Measured values: PMC8692352 (2023)

B1: α-globin chain (protein)
chain: not shown
B2: tPA (protein)
chain: SYQVICRDEKTQMIYQQHQSWLRPVLRSNRVEYCWCNSGRAQCHSVPVKSCSEPRCFNGGTCQQALYFSDFVCQCPEGFAGKCCEIDTRATCYEDQGISYRGTWSTAESGAECTNWNSSALAQKPYSGRRPDAIRLGLGNHNYCRNPDRDSKPWCYVFKAGKYSSEFCSTPACSEGNSDCYFGNGSAYRGTHSLTESGASCLPWNSMILIGKVYTAQNPSAQALGLGKHNYCRNPDGDAKPWCHVLKNRRLTWEYCDVPSCSTCGLRQYSQPQFRIKGGLFADIASHPWQAAIFAKHRRSPGERFLCGGILISSCWILSAAHCFQERFPPHHLTVILGRTYRVVPGEEEQKFEVEKYIVHKEFDDDTYDNDIALLQLKSDSSRCAQESSVVRTVCLPPADLQLPDWTECELSGYGKHEALSPFYSERLKEAHVRLYPSSRCTSQHLLNRTVTDNMLCAGDTRSGGPQANLHDACQGDSGGPLVCLNDGRMTLVGIISWGLGCGQKDVPGVYTKVTNYLDWIRDNMRP
B3: β-globin chain (protein)
chain: not shown
B4: hemoglobin A (protein)
chain 1: not shown
chain 2: not shown

Biological target: T1, plasminogen (Homo sapiens, UniProt P00747)
T1 chain: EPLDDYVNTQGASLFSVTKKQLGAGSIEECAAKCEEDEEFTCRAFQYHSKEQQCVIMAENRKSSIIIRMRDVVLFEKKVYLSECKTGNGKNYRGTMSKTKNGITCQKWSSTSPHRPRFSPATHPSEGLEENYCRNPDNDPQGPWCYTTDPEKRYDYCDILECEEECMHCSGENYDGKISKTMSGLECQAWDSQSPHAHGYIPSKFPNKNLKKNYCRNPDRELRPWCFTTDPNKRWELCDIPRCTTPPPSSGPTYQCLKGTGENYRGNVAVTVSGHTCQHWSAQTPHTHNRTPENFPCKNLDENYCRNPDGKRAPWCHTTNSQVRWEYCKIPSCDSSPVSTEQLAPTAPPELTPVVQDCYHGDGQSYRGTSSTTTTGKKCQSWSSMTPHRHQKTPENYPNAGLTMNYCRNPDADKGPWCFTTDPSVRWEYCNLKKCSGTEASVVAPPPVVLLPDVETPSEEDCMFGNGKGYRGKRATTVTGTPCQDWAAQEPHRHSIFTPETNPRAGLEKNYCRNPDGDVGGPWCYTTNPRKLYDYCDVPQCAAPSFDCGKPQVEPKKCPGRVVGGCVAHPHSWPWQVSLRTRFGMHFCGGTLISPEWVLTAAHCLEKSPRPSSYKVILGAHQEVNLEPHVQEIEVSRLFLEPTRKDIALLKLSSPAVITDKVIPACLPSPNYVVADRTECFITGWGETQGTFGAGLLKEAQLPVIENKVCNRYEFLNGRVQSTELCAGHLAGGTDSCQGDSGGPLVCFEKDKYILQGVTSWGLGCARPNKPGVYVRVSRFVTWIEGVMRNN
Test: SPR

First: B1
Second: B2
The Kd of the first is 1.9-fold higher: 93 nM for the first, 48 nM for the second. The second binds more tightly here.

B3 and B4 are within 1.5-fold of each other in Kd: 4000 nM for the first, 3600 nM for the second.
